Measurements reported in PMC5127057.

Key:
[1] = target: Human Neutrophil Elastase (human) (UniProt P08246); test: stoichiometry of inhibition by titration of residual protease activity; 200 nM HNE or 300 nM PR3 mixed with varied Siropin, molar ratios from 0 to 10, 5 min at 37 °C, then substrate, absorbance at 405 nm for 30 min; x-intercept of linear regression; 20 mM Tris-HCl, 500 mM NaCl, pH 8.0
[2] = target: Human Proteinase 3 (human) (UniProt P24158); test: as above
[3] = target: Human Neutrophil Elastase (human) (UniProt P08246); test: progress curve kinetics of protease inhibition; pseudo-first-order conditions, Siropin 1 to tenfold over protease, 200 µM substrate, HNE (200 nM) or PR3 (300 nM), 37 °C, 405 nm for 20 min; k obs against Siropin concentration, slope k'app corrected for substrate competition (Km 114 µM HNE, 270 µM PR3)
[4] = target: Human Proteinase 3 (human) (UniProt P24158); test: as above

UniProt P08246, sequence (P08246 30-267): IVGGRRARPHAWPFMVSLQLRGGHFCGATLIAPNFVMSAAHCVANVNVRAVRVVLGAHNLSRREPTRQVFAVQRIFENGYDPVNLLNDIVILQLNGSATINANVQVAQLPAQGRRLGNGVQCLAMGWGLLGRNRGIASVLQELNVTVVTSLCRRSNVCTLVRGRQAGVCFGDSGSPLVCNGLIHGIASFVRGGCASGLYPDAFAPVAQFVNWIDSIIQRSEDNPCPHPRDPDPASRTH
UniProt P24158, sequence (P24158 28-248): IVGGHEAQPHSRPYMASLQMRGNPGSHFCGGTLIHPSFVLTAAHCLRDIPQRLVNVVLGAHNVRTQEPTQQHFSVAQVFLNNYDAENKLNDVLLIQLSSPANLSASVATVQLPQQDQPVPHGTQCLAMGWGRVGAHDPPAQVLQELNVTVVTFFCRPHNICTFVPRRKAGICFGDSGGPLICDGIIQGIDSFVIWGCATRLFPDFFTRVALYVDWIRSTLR

| Substance | stoichiometry of inhibition (SI) [1] | stoichiometry of inhibition (SI) [2] | kon [3] [M⁻¹ s⁻¹] | kon [4] [M⁻¹ s⁻¹] |
| --- | --- | --- | --- | --- |
| Siropin 2 (natural protein) | 1.82 | 1.1 | 77000 | 110000 |
| Siropin 1 (natural protein) | 1.76 | 1.1 | 84000 | 260000 |
